Laboratory results as given in patent US20250179160A1 (OMEROS, published 2025).

Molecular target: T1, recombinant human Pro-Factor D (human, UniProt P00746 20-253)
T1 construct: also used for the endogenous pro-Factor D detected in 3MC patient serum; also called pro CFD; hPro-CFD
Test: sandwich ELISA: coat goat polyclonal AF1824; 2 ug/mL recombinant CFD spiked into buffer or 10% Factor D-depleted serum; detection with 14A11 hybridoma supernatant diluted in half, HRP goat anti-mouse IgG Fc; OD450
Experimental: ELISA plates were coated overnight at 4° C. with polyclonal goat anti-human CFD AF1824 (R&D Systems). Plate wells were washed, blocked, and washed again. Normal human serum pool, normal human plasma pool or Factor D-depleted human serum were diluted 10-fold in assay buffer (PBS with 1% BSA and 0.05% Tween 20, PBST-BSA), either un-spiked or spiked with 2 μg/mL recombinant pro-(pro CFD) or mature-factor D (mature CFD). These matrices, including a buffer control with or without recombinant protein spiked in, were incubated for 60 minutes at room temperature, and then washed. […] The detection antibodies were incubated for one hour at room temperature and washed, then developed with a horseradish peroxidase (HRP)-labeled goat polyclonal to mouse IgG Fc (Jackson ImmunoResearch).

B1: 14A11, hybridoma supernatant (antibody, V domains shown)
VH: QITLKESGPGILQSSQTLSLTCSFSGVSLTTSGMGVSWIRQPSGKGLEWLAHIYWDDEKHYHPSLKSRLTISKDASRNQVFFRILSVDTADTATYYCALRYYGYRSFMDYWGQGTSVTVSS
VL: DVLMTQSPLSLPVSLGDQASIFCRSNQSIVHSNGNTYFEWYLQKPGQSPKLLIYKVSNRFSGVPDRFSGSGSGTDFTLRISRVEAEDLGIYYCFQGSHVPPTFGGGTKLEIKR
notes: Mouse hybridoma antibody
B1: no binding.
